According to US20260284189A1, “TREATMENT OF NON-SMALL CELL LUNG CANCER” (ASTRAZENECA AB, priority 2023, published 2026):
Several values for one entry are separate records, joined by “and”; a condition that tells them apart may be missing. Equal entries are not always repeated.

Assay: AEGEAN phase III: adverse events in the safety analysis set (CTCAE v5.0)
Details: for COVID-19: number of patients with event / COVID-19: patients with event: grouped term; for Any immune-mediated event: number of patients / Any immune-mediated event: patients: immune-mediated AE
[1] = all-causality, safety analysis set N = 400
[2] = any cause, Any Grade, safety analysis set N = 400
[3] = any cause, Any Grade, safety analysis set N = 400, listed as durvalumab
[4] = any cause, Max. Grade 3 or 4, safety analysis set N = 400
[5] = immune-mediated AE (grouped term), Any Grade 3 or 4, safety analysis set N = 400
[6] = immune-mediated AE (grouped term), Any Grade, safety analysis set N = 400
[7] = Any Grade 3 or 4, safety analysis set N = 400
[8] = Any Grade, safety analysis set N = 400
[9] = overall study period, safety analysis set N = 400
[10] = overall study period, safety analysis set N = 400, listed as durvalumab
[11] = possibly related to study treatment, Any Grade, safety analysis set N = 400
[12] = possibly related to study treatment, Max. Grade 3 or 4, safety analysis set N = 400

Excerpt: Safety was monitored throughout the study and adverse events (AEs) were graded using the National Cancer Institute Common Toxicity Criteria for AEs version 5.0.

Substance: Durvalumab: antibody that selectively binds PD-L1 and blocks binding of PD-L1 to PD-1 and CD80; arm given with platinum-based chemotherapy before surgery
- Adverse events leading to cancellation of surgery: number of patients [1]: 7
- Adverse events leading to cancellation of surgery: patients [1]: (1.8) %
- Adverse events leading to discontinuation of durvalumab/placebo: number of patients [1]: 48
- Adverse events leading to discontinuation of durvalumab/placebo: patients [1]: (12.0) %
- COVID-19: number of patients with event [2]: 44
- COVID-19: patients with event [2]: (11.0) %
- Alopecia: number of patients with event [2]: 68
- Alopecia: patients with event [2]: (17.0) %
- Anemia: number of patients with event [2]: 136
- Anemia: patients with event [2]: (34.0) %
- Asthenia: number of patients with event [2]: 50
- Asthenia: patients with event [2]: (12.5) %
- Constipation: number of patients with event [2]: 99
- Constipation: patients with event [2]: (24.8) %
- Decreased appetite: number of patients with event [2]: 73
- Decreased appetite: patients with event [2]: (18.3) %
- Diarrhea: number of patients with event [2]: 52
- Diarrhea: patients with event [2]: (13.0) %
- Fatigue: number of patients with event [2]: 52
- Fatigue: patients with event [2]: (13.0) %
- Insomnia: number of patients with event [2]: 41
- Insomnia: patients with event [2]: (10.3) %
- Nausea: number of patients with event [2]: 101
- Nausea: patients with event [2]: (25.3) %
- Neutropenia: number of patients with event [2]: 68
- Neutropenia: patients with event [2]: (17.0) %
- Neutrophil count decreased: number of patients with event [2]: 64
- Neutrophil count decreased: patients with event [2]: (16.0) %
- Procedural pain: number of patients with event [2]: 44
- Procedural pain: patients with event [2]: (11.0) %
- Pruritis: number of patients with event [2]: 47
- Pruritis: patients with event [2]: (11.8) %
- Rash: number of patients with event [2]: 56
- Rash: patients with event [2]: (14.0) %
- Vomiting: number of patients with event [2]: 45
- Vomiting: patients with event [2]: (11.3) %
- Pruritis: patients with event [3]: 11.8%
- Rash: patients with event [3]: 14%
- COVID-19: number of patients with event [4]: 1
- COVID-19: patients with event [4]: (0.3) %
- Alopecia: number of patients with event [4]: 0
- Anemia: number of patients with event [4]: 26
- Anemia: patients with event [4]: (6.5) %
- Asthenia: number of patients with event [4]: 0
- Constipation: number of patients with event [4]: 1
- Constipation: patients with event [4]: (0.3) %
- Decreased appetite: number of patients with event [4]: 1
- Decreased appetite: patients with event [4]: (0.3) %
- Diarrhea: number of patients with event [4]: 3
- Diarrhea: patients with event [4]: (0.8) %
- Fatigue: number of patients with event [4]: 0
- Insomnia: number of patients with event [4]: 0
- Nausea: number of patients with event [4]: 1
- Nausea: patients with event [4]: (0.3) %
- Neutropenia: number of patients with event [4]: 36
- Neutropenia: patients with event [4]: (9.0) %
- Neutrophil count decreased: number of patients with event [4]: 39
- Neutrophil count decreased: patients with event [4]: (9.8) %
- Procedural pain: number of patients with event [4]: 1
- Procedural pain: patients with event [4]: (0.3) %
- Pruritis: number of patients with event [4]: 1
- Pruritis: patients with event [4]: (0.3) %
- Rash: number of patients with event [4]: 2
- Rash: patients with event [4]: (0.5) %
- Vomiting: number of patients with event [4]: 3
- Vomiting: patients with event [4]: (0.8) %
- COVID-19 events of max. grade 5: number of patients (any cause, assessed as unrelated to study treatment, safety analysis set, listed as D): 5
- Decreased appetite with an outcome of death (max. grade 5): number of patients (any cause, safety analysis set, listed as D): 1
- Dermatitis/Rash: number of patients [5]: 2
- Dermatitis/Rash: patients [5]: (0.5) %
- Diarrhea/Colitis: number of patients [5]: 0
- Hepatic events: number of patients [5]: 8
- Hepatic events: patients [5]: (2.0) %
- Hyperthyroid events: number of patients [5]: 0
- Hypothyroid events: number of patients [5]: 0
- Pneumonitis: number of patients [5]: 5
- Pneumonitis: patients [5]: (1.2) %
- Dermatitis/Rash: number of patients [6]: 22
- Dermatitis/Rash: patients [6]: (5.5) %
- Diarrhea/Colitis: number of patients [6]: 3
- Diarrhea/Colitis: patients [6]: (0.7) %
- Hepatic events: number of patients [6]: 13
- Hepatic events: patients [6]: (3.2) %
- Hyperthyroid events: number of patients [6]: 7
- Hyperthyroid events: patients [6]: (1.7) %
- Hypothyroid events: number of patients [6]: 37
- Hypothyroid events: patients [6]: (9.2) %
- Pneumonitis: number of patients [6]: 15
- Pneumonitis: patients [6]: (3.7) %
- Pneumonitis: patients (immune-mediated AE (grouped term), Any Grade, safety analysis set N = 400, listed as durvalumab): 3.7%
- Any immune-mediated event: number of patients [7]: 17
- Any immune-mediated event: patients [7]: (4.2) %
- Any immune-mediated event: patients (Any Grade 3 or 4, safety analysis set N = 400, listed as durvalumab): 4.2%
- Any immune-mediated event: number of patients [8]: 95
- Any immune-mediated event: patients [8]: (23.7) %
- Any immune-mediated event: patients (Any Grade, safety analysis set N = 400, listed as durvalumab): 23.7% and 23.5%
- All-causality adverse events with outcome of death: number of patients [9]: 23
- All-causality adverse events with outcome of death: patients [9]: (5.8) %
- All-causality adverse events, maximum grade 3 or 4: number of patients [9]: 169
- All-causality adverse events, maximum grade 3 or 4: patients [9]: (42.3) %
- All-causality serious adverse events: number of patients [9]: 150
- All-causality serious adverse events: patients [9]: (37.5) %
- Any-grade adverse events possibly related to durvalumab/placebo/chemotherapy: number of patients [9]: 346
- Any-grade adverse events possibly related to durvalumab/placebo/chemotherapy: patients [9]: (86.5) %
- Any-grade all-causality adverse events: number of patients [9]: 386
- Any-grade all-causality adverse events: patients [9]: (96.5) %
- Possibly related adverse events with outcome of death: number of patients [9]: 7
- Possibly related adverse events with outcome of death: patients [9]: (1.8) %
- Possibly related adverse events, maximum grade 3 or 4: number of patients [9]: 129
- Possibly related adverse events, maximum grade 3 or 4: patients [9]: (32.3) %
- All-causality adverse events, maximum grade 3 or 4: patients [10]: 42.3%
- Any-grade adverse events possibly related to durvalumab/placebo/chemotherapy: patients [10]: 86.5%
- Any-grade all-causality adverse events: patients [10]: 96.5%
- Possibly related adverse events with outcome of death: patients [10]: 1.8%
- Possibly related adverse events, maximum grade 3 or 4: patients [10]: 32.3%
- Alanine aminotransferase increased: number of patients with event [11]: 30
- Alanine aminotransferase increased: patients with event [11]: (7.5) %
- Alopecia: number of patients with event [11]: 66
- Alopecia: patients with event [11]: (16.5) %
- Anemia: number of patients with event [11]: 104
- Anemia: patients with event [11]: (26.0) %
- Arthralgia: number of patients with event [11]: 21
- Arthralgia: patients with event [11]: (5.3) %
- Asthenia: number of patients with event [11]: 34
- Asthenia: patients with event [11]: (8.5) %
- Constipation: number of patients with event [11]: 44
- Constipation: patients with event [11]: (11.0) %
- Decreased appetite: number of patients with event [11]: 49
- Decreased appetite: patients with event [11]: (12.3) %
- Diarrhea: number of patients with event [11]: 34
- Diarrhea: patients with event [11]: (8.5) %
- Fatigue: number of patients with event [11]: 42
- Fatigue: patients with event [11]: (10.5) %
- Hypothyroidism: number of patients with event [11]: 37
- Hypothyroidism: patients with event [11]: (9.3) %
- Leukopenia: number of patients with event [11]: 33
- Leukopenia: patients with event [11]: (8.3) %
- Nausea: number of patients with event [11]: 84
- Nausea: patients with event [11]: (21.0) %
- Neutropenia: number of patients with event [11]: 60
- Neutropenia: patients with event [11]: (15.0) %
- Neutrophil count decreased: number of patients with event [11]: 61
- Neutrophil count decreased: patients with event [11]: (15.3) %
- Platelet count decreased: number of patients with event [11]: 29
- Platelet count decreased: patients with event [11]: (7.3) %
- Pruritis: number of patients with event [11]: 33
- Pruritis: patients with event [11]: (8.3) %
- Rash: number of patients with event [11]: 37
- Rash: patients with event [11]: (9.3) %
- Thrombocytopenia: number of patients with event [11]: 24
- Thrombocytopenia: patients with event [11]: (6.0) %
- Vomiting: number of patients with event [11]: 31
- Vomiting: patients with event [11]: (7.8) %
- White blood cell count decreased: number of patients with event [11]: 25
- White blood cell count decreased: patients with event [11]: (6.3) %
- Alanine aminotransferase increased: number of patients with event [12]: 2
- Alanine aminotransferase increased: patients with event [12]: (0.5) %
- Alopecia: number of patients with event [12]: 0
- Anemia: number of patients with event [12]: 17
- Anemia: patients with event [12]: (4.3) %
- Arthralgia: number of patients with event [12]: 1
- Arthralgia: patients with event [12]: (0.3) %
- Asthenia: number of patients with event [12]: 0
- Constipation: number of patients with event [12]: 0
- Decreased appetite: number of patients with event [12]: 0
- Diarrhea: number of patients with event [12]: 3
- Diarrhea: patients with event [12]: (0.8) %
- Fatigue: number of patients with event [12]: 0
- Hypothyroidism: number of patients with event [12]: 0
- Leukopenia: number of patients with event [12]: 9
- Leukopenia: patients with event [12]: (2.3) %
- Nausea: number of patients with event [12]: 1
- Nausea: patients with event [12]: (0.3) %
- Neutropenia: number of patients with event [12]: 36
- Neutropenia: patients with event [12]: (9.0) %
- Neutrophil count decreased: number of patients with event [12]: 38
- Neutrophil count decreased: patients with event [12]: (9.5) %
- Platelet count decreased: number of patients with event [12]: 7
- Platelet count decreased: patients with event [12]: (1.8) %
- Pruritis: number of patients with event [12]: 1
- Pruritis: patients with event [12]: (0.3) %
- Rash: number of patients with event [12]: 2
- Rash: patients with event [12]: (0.5) %
- Thrombocytopenia: number of patients with event [12]: 6
- Thrombocytopenia: patients with event [12]: (1.5) %
- Vomiting: number of patients with event [12]: 3
- Vomiting: patients with event [12]: (0.8) %
- White blood cell count decreased: number of patients with event [12]: 8
- White blood cell count decreased: patients with event [12]: (2.0) %
